According to article PMC3459908 (2012):

Assays:
BMP2 (Homo sapiens) = BMP2 (Homo sapiens) (UniProt P12643); experiment: SPR; details: cited from earlier work
BMP2 [1] = biological target: T1, BMP2 (Homo sapiens, UniProt P12643); experiment: SPR
T1 chain: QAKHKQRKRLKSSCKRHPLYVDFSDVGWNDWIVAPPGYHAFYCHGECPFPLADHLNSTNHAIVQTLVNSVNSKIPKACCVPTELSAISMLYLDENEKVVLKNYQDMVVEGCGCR

BMP7 [2] = biological target: T2, BMP7 (Homo sapiens, UniProt P18075); experiment: SPR
T2 chain: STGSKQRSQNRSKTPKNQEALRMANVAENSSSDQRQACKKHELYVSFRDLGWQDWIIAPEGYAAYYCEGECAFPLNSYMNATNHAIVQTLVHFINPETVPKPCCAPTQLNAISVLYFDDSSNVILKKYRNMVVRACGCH

BMP5 [3] = biological target: T3, BMP5 (Homo sapiens, UniProt P22003); experiment: SPR
T3 chain: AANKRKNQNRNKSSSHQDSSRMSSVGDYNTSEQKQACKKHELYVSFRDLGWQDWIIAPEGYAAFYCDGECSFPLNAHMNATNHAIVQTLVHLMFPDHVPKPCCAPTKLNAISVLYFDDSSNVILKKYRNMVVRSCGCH

BMP6 [4] = biological target: T4, BMP6 (Homo sapiens, UniProt P22004); experiment: SPR
T4 chain: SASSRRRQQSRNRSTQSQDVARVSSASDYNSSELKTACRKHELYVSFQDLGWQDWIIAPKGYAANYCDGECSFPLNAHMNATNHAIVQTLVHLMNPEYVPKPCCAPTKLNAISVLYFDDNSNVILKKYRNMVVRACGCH

BMP4 [5] = biological target: T5, BMP4 (Homo sapiens, UniProt P12644); experiment: SPR
T5 chain: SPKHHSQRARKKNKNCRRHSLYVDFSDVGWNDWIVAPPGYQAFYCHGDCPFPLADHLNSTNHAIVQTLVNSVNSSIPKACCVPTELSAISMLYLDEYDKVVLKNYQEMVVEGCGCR

BMP4 [6] = biological target: T6, BMP4 (Homo sapiens (Human),Homo sapiens …, UniProt P12644,P12644); experiment: SPR kinetic 1:1, BMP immobilised, full soluble RGM analyte
T6 chain 1: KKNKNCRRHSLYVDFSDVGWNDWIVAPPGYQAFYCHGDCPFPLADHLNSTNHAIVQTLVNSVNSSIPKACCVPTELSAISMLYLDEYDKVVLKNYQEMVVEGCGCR
T6 chain 2: T6 chain 1

BMP5 [7] = biological target: T7, BMP5 (Homo sapiens (Human),Homo sapiens …, UniProt P22003,P22003); experiment: as above
T7 chain 1: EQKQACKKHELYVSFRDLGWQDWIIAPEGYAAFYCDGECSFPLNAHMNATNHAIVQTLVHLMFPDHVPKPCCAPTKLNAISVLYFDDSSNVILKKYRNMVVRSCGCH
T7 chain 2: T7 chain 1

BMP7 [8] = biological target: T8, BMP7 (Homo sapiens (Human),Homo sapiens …, UniProt P18075,P18075); experiment: as above
T8 chain 1: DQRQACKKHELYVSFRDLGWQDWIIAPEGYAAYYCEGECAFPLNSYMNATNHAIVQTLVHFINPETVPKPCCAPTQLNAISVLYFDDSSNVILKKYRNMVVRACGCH
T8 chain 2: T8 chain 1

BMP2 [9] = biological target: T9, BMP2 (Homo sapiens (Human),Homo sapiens …, UniProt P12643,P12643); experiment: as above
T9 chain 1: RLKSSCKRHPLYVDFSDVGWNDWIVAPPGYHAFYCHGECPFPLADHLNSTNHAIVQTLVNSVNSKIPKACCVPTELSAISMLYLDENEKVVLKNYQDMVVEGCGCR
T9 chain 2: T9 chain 1

BMP6 [10] = biological target: T10, BMP6 (Homo sapiens (Human),Homo sapiens …, UniProt P22004,P22004); experiment: as above
T10 chain 1: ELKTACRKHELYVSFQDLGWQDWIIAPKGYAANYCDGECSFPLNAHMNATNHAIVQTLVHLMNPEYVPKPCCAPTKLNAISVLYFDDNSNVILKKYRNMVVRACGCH
T10 chain 2: T10 chain 1

BMP9 = biological target: T11, BMP9 (Homo sapiens (Human),Homo sapiens …, UniProt Q9UK05,Q9UK05); experiment: as above
T11 chain 1: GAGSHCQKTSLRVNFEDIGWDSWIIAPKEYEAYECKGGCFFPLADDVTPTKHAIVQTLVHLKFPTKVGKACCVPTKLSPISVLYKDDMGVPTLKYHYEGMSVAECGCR
T11 chain 2: T11 chain 1

Question: For HJV (from UniProt Q6ZVN8), which Kd (BMP2 (Homo sapiens)) is on record?
Answer: 140 nM

B1: HJV (protein)
chain: QCKILRCNAEYVSSTLSLRGGGSSGALRGGGGGGRGGGVGSGGLCRALRSYALCTRRTARTCRGDLAFHSAVHGIEDLMIQHNCSRQGPTAPPPPRGPALPGAGSGLPAPDPCDYEGRFSRLHGRPPGFLHCASFGDPHVRSFHHHFHTCRVQGAWPLLDNDFLFVQATSSPMALGANATATRKLTIIFKNMQECIDQKVYQAEVDNLPVAFEDGSINGGDRPGGSSLSIQTANPGNHVEIQAAYIGTTIIIRQTAGQLSFSIKVAEDVAMAFSAEQDLQLCVGGCPPSQRLSRSERNRRGAITIDTARRLCKEGLPVEDAYFHSCVFDVLISGDPNFTVAAQAALEDARAFLPDLEKLHLFPSD
Question: Which Kd (BMP2 [1]) does the source give for B1 here?
Answer: 9.4 nM

Question: And the Kd (BMP7 [2])?
Answer: 20 nM

Question: What about the Kd (BMP5 [3]) of the same molecule?
Answer: 17 nM

Question: And the Kd (BMP6 [4])?
Answer: 8.1 nM

Question: And the Kd (BMP4 [5])?
Answer: 4.5 nM

B2: RGMA (protein)
chain: PHLRTFTDRFQTCKVQGAWPLIDNNYLNVQVTNTPVLPGSAATATSKLTIIFKNFQECVDQKVYQAEMDELPAAFVDGSKNGGDKHGANSLKITEKVSGQHVEIQAKYIGTTIVVRQVGRYLTFAVRMPEEVVNAVEDWDSQGLYLCLRGCPLNQQIDFQAFHTNAEGTGARRLAAASPAPTAPETFPYETAVAKCKEKLPVEDLYYQACVFDLLTTGDVNFTLAAYYALEDVKMLHSNKDKLHLYERTRDLPGRA
Question: Which results are given for B2?
Answer: Kd (BMP2 [1]): 22 nM; Kd (BMP7 [2]): 63 nM; Kd (BMP5 [3]): 83 nM; Kd (BMP6 [4]): 55 nM; Kd (BMP4 [5]): 14 nM

B3: RGMB (protein)
chain: GDCQQPAQCRIQKCTTDFVSLTSHLNSAVDGFDSEFCKALRAYAGCTQRTSKACRGNLVYHSAVLGISDLMSQRNCSKDGPTSSTNPEVTHDPCNYHSHAGAREHRRGDQNPPSYLFCGLFGDPHLRTFKDNFQTCKVEGAWPLIDNNYLSVQVTNVPVVPGSSATATNKITIIFKAHHECTDQKVYQAVTDDLPAAFVDGTTSGGDSDAKSLRIVERESGHYVEMHARYIGTTVFVRQVGRYLTLAIRMPEDLAMSYEESQDLQLCVNGCPLSERIDDGQGQVSAILGHSLPRTSLVQAWPGYTLETANTQCHEKMPVKDIYFQSCVFDLLTTGDANFTAAAHSALEDVEALHPRKERWHIFPSSGN
Question: Which Kd (BMP6 [4]) does the source give for B3 here?
Answer: 28 nM

B4: RGMC (protein)
chain: QCKILRCNAEYVSSTLSLRGGGSSGALRGGGGGGRGGGVGSGGLCRALRSYALCTRRTARTCRGDLAFHSAVHGIEDLMIQHNCSRQGPTAPPPP
Question: What does the source list for B4?
Answer: Kd (BMP4 [6]): 4.5 nM; Kd (BMP5 [7]): 17 nM; Kd (BMP7 [8]): 20 nM; Kd (BMP2 [9]): 9.4 nM; Kd (BMP6 [10]): 8.1 nM; Kd (BMP9): > 200 nM

B5: RGMA (protein)
chain: PCKILKCNSEFWSATSGSHAPASDDTPEFCAALRSYALCTRRTARTCRGDLAYHSAVHGIEDLMSQHNCSKDGPTSQPRL
Question: For B5, which Kd (BMP9) is on record?
Answer: > 100 nM

B6: RGMB (protein)
chain: QCRIQKCTTDFVSLTSHLNSAVDGFDSEFCKALRAYAGCTQRTSKACRGNLVYHSAVLGISDLMSQRNCSKDGPTSSTNP
Question: With B6 as the molecule, how does the Kd (BMP4 [6]) read?
Answer: 2.6 nM

Question: What about the Kd (BMP5 [7]) of the same molecule?
Answer: 33 nM

Question: And the Kd (BMP7 [8])?
Answer: 166 nM

Question: What about the Kd (BMP2 [9]) of the same molecule?
Answer: 5.5 nM

Question: And the Kd (BMP9)?
Answer: > 30 nM
